The target in this test is biotinylated human DLL3 protein expressed as a human IgG1 fusion protein (human) (UniProt Q9NYJ7). As to the kind of experiment: Octet, biotinylated human DLL3-IgG1 fusion on streptavidin tips, single 50 nM, conditioned medium (relative KD).
biotinylated human DLL3 protein expressed as a human IgG1 fusion protein (human), sequence (Q9NYJ7 27-492): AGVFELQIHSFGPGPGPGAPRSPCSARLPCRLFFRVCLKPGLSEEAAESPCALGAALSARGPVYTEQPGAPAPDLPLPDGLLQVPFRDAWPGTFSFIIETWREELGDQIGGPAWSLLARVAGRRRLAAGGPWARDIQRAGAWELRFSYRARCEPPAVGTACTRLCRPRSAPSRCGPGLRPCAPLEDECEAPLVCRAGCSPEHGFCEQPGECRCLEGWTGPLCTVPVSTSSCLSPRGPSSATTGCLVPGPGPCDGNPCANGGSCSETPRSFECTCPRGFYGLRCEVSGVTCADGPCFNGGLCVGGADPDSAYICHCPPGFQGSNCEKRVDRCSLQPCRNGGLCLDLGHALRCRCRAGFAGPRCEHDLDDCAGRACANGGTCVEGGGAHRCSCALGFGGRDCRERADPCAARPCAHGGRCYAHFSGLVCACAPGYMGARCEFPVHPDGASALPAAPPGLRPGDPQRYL

B1: anti-DLL3 trispecific protein, DLL3 binder 3F06 (protein, part only; not given: anti-CD3 fragment and anti-albumin sdAb, part only)
chain, part: EVQLVESGGGLVQPGGSLTLSCAASGSRVSFLSMAWYRQAPGKKRELVAGISADGSTSYIDSVKGRFTISRDNAKNSVYLQMNSLRAEDTAVYYCYAYRWATRYTYWGQGTLVTVSSGGGGSGGGSGGGGSGGGSHHHHHH
Take B1: the dissociation constant (Kd) – broadly, the equilibrium constant for the complex coming apart – is 9.9 nM.

B2: anti-DLL3 trispecific protein, DLL3 binder 4A01 (protein, part only; not given: CD3 binder and albumin binder, part only)
chain, part: EVQLVESGGGLVQPGGSLTLSCAASGSSVRFLSMAWYRQAPGKKRELVAGISQDGSTDYIDSVKGRFTISRDNAKNSVYLQMNSLRAEDTAVYYCYAYRWRTRYTYWGQGTLVTVSSGGGGSGGGSGGGGSGGGSHHHHHH
For B2, the Kd amounted to 10 nM.

B3: anti-DLL3 trispecific protein, DLL3 binder 3E02 (protein, part only; not given: anti-CD3 fragment and anti-albumin domain, part only)
chain, part: EVQLVESGGGLVQPGGSLTLSCAASGSGVRFLSMAWYRQAPGKKRELVAGISPDGSTDYIDSVKGRFTISRDNAKNSVYLQMNSLRAEDTAVYYCYAYRWTRRYTYWGQGTLVTVSSGGGGSGGGSGGGGSGGGSHHHHHH
As to B3, the dissociation constant (Kd) was 12 nM.

B4: anti-DLL3 trispecific protein, DLL3 binder 4E07 (protein, part only; not given: CD3 binder and albumin binder, part only)
chain, part: EVQLVESGGGLVQPGGSLTLSCAASGSRVSFLSMAWYRQAPGKKRELVAGISADGSTMYIDSVKGRFTISRDNAKNSVYLQMNSLRAEDTAVYYCYAYRWTTRLTYWGQGTLVTVSSGGGGSGGGSGGGGSGGGSHHHHHH
On to B4, for which the Kd came out at 11 nM.

B5: anti-DLL3 trispecific protein, DLL3 binder 4B08 (protein, part only; not given: CD3 fragment and albumin sdAb, part only)
chain, part: EVQLVESGGGLVQPGGSLTLSCAASGSSVSFMSMAWYRQAPGKKRELVAGISADGSTDYIASVKGRFTISRDNAKNSVYLQMNSLRAEDTAVYYCYAYRWTTRSTYWGQGTLVTVSSGGGGSGGGSGGGGSGGGSHHHHHH
For the molecule B5, the Kd amounted to 10 nM.

B6: anti-DLL3 trispecific protein, DLL3 binder 3E09 (protein, part only; not given: CD3 binder and albumin binder, part only)
chain, part: EVQLVESGGGLVQPGGSLTLSCAASGSSVRFLSMAWYRQAPGKKRELVAGISRDGSTDYIDSVKGRFTISRDNAKNSVYLQMNSLRAEDTAVYYCYAYRWSTRYTYWGQGTLVTVSSGGGGSGGGSGGGGSGGGSHHHHHH
B6: the Kd turned out to be 10 nM.

B7: anti-DLL3 trispecific protein, DLL3 binder 3C06 (protein, part only; not given: CD3 binder and albumin binder, part only)
chain, part: EVQLVESGGGLVQPGGSLTLSCAASGTSVSFLSIAWYRQAPGKKRELVAGISADGSTDYIASVKGRFTISRDNAKNSVYLQMNSLRAEDTAVYYCYAYRWRTRYTYWGQGTLVTVSSGGGGSGGGSGGGGSGGGSHHHHHH
Molecule B7 returned a Kd of 10 nM.

B8: anti-DLL3 trispecific protein, DLL3 binder 3E04 (protein, part only; not given: CD3 fragment and albumin sdAb, part only)
chain, part: EVQLVESGGGLVQPGGSLTLSCAASGSSVHFLSMAWYRQAPGKKRELVAGISRDGSTDYIDSVKGRFTISRDNAKNSVYLQMNSLRAEDTAVYYCYAYRWTTRYRYWGQGTLVTVSSGGGGSGGGSGGGGSGGGSHHHHHH
On to B8, for which the dissociation constant (Kd) stood at 11 nM.

B9: anti-DLL3 trispecific protein, DLL3 binder 4B01 (protein, part only; not given: anti-CD3 and anti-albumin domains, part only)
chain, part: EVQLVESGGGLVQPGGSLTLSCAASGSSVKFLSMAWYRQAPGKKRELVAGISRDGSTDYIDSVKGRFTISRDNAKNSVYLQMNSLRAEDTAVYYCYAYRWTTRFTYWGQGTLVTVSSGGGGSGGGSGGGGSGGGSHHHHHH
Molecule B9 showed a dissociation constant (Kd) of 11 nM.

B10: anti-DLL3 trispecific protein, DLL3 binder 3D03 (protein, part only; not given: anti-CD3 fragment and anti-albumin sdAb, part only)
chain, part: EVQLVESGGGLVQPGGSLTLSCAASGSSVVFLSMAWYRQAPGKKRELVAGISADGSMDYIDSVKGRFTISRDNAKNSVYLQMNSLRAEDTAVYYCYAYRWRTRYTYWGQGTLVTVSSGGGGSGGGSGGGGSGGGSHHHHHH
B10: the Kd is 11 nM.

B11: anti-DLL3 trispecific protein, DLL3 binder 3E011 (protein, part only; not given: CD3 binder and albumin binder, part only)
chain, part: EVQLVESGGGLVQPGGSLTLSCAASGSKVSFLSMAWYRQAPGKKRELVAGISRDGSTDYIDSVKGRFTISRDNAKNSVYLQMNSLRAEDTAVYYCYAYRWTTRYTFWGQGTLVTVSSGGGGSGGGSGGGGSGGGSHHHHHH
In the case of B11, the Kd stood at 11 nM.

B12: anti-DLL3 trispecific protein, DLL3 binder 3B01 (protein, part only; not given: anti-CD3 fragment and anti-albumin sdAb, part only)
chain, part: EVQLVESGGGLVQPGGSLTLSCAASGSSVSFLSMAWYRQAPGKKRELVAGISGDGSTDYIDSVKGRFTISRDNAKNSVYLQMNSLRAEDTAVYYCYAYRWTTRYTYWGQGTLVTVSSGGGGSGGGSGGGGSGGGSHHHHHH
As to B12, the Kd was 10 nM.

B13: anti-DLL3 trispecific protein, DLL3 binder 3D02 (protein, part only; not given: anti-CD3 fragment and anti-albumin sdAb, part only)
chain, part: EVQLVESGGGLVQPGGSLTLSCAASGSSVRFLSMAWYRQAPGKKRELVAGISRDGSTDYIDSVKGRFTISRDNAKNSVYLQMNSLRAEDTAVYYCYAYRWITRYTYWGQGTLVTVSSGGGGSGGGSGGGGSGGGSHHHHHH
For B13, the Kd is 12 nM.

B14: anti-DLL3 trispecific protein, DLL3 binder 4E06 (protein, part only; not given: anti-CD3 fragment and anti-albumin domain, part only)
chain, part: EVQLVESGGGLVQPGGSLTLSCAASGTSVSFLSMAWYRQAPGKKRELVAGISADGSTDYIRSVKGRFTISRDNAKNSVYLQMNSLRAEDTAVYYCYAYRWTTRLTYWGQGTLVTVSSGGGGSGGGSGGGGSGGGSHHHHHH
The molecule B14 gave a Kd of 10 nM.

B15: anti-DLL3 trispecific protein, DLL3 binder 4E01 (protein, part only; not given: anti-CD3 fragment and anti-albumin sdAb, part only)
chain, part: EVQLVESGGGLVQPGGSLTLSCAASGSSVSFLSVAWYRQAPGKKRELVAGISRDGSTDYIDSVKGRFTISRDNAKNSVYLQMNSLRAEDTAVYYCYAYRWRTRYTYWGQGTLVTVSSGGGGSGGGSGGGGSGGGSHHHHHH
As to B15, the dissociation constant (Kd) stood at 11 nM.

B16: anti-DLL3 trispecific protein, DLL3 binder 3D01 (protein, part only; not given: CD3 binder and albumin binder, part only)
chain, part: EVQLVESGGGLVQPGGSLTLSCAASGSSVSFLSMAWYRQAPGKKRELVAGISRDGSTDYIDSVKGRFTISRDNAKNSVYLQMNSLRAEDTAVYYCYAYRWITRYTYWGQGTLVTVSSGGGGSGGGSGGGGSGGGSHHHHHH
Take B16: the Kd was 10 nM.

B17: anti-DLL3 trispecific protein, DLL3 binder 1D08 (protein, part only; not given: CD3 binder and albumin binder, part only)
chain, part: EVQLVESGGGLVQPGGSLTLSCVASGLTSSINAMGWYRRAPGKQRELVAGISSDGSKVYADSVKGRFTISRDNAKNSVYLQMNSLRAEDTAVYYCYYFRMVSGSSMRYWGQGTLVTVSSGGGGSGGGSGGGGSGGGSHHHHHH
For B17, the Kd was found to be 10 nM.

B18: anti-DLL3 trispecific protein, DLL3 binder 2F06 (protein, part only; not given: CD3 fragment and albumin sdAb, part only)
chain, part: EVQLVESGGGLVQPGGSLTLSCVASGSTSSINAYGWYRRAPGKQRELVAGISSDGSAVYADSVKGRFTISRDNAKNSVYLQMNSLRAEDTAVYYCYYFRTHSGSSMRYWGQGTLVTVSSGGGGSGGGSGGGGSGGGSHHHHHH
Molecule B18 yielded a Kd of 10 nM.

B19: anti-DLL3 trispecific protein, DLL3 binder 2E06 (protein, part only; not given: CD3 binder and albumin binder, part only)
chain, part: EVQLVESGGGLVQPGGSLTLSCVASGSTSSINAMGWYRRAPGKQRELVAGISSDGSKVYASSVKGRFTISRDNAKNSVYLQMNSLRAEDTAVYYCYYFRTVRGSSMRYWGQGTLVTVSSGGGGSGGGSGGGGSGGGSHHHHHH
B19: the Kd was 11 nM.

B20: anti-DLL3 trispecific protein, DLL3 binder 2G04 (protein, part only; not given: anti-CD3 fragment and anti-albumin sdAb, part only)
chain, part: EVQLVESGGGLVQPGGSLTLSCVASGSTSSINAMGWYRRAPGKQRELVAGISSDGSLVYADSVKGRFTISRDNAKNSVYLQMNSLRAEDTAVYYCYYFRILSGSSMRYWGQGTLVTVSSGGGGSGGGSGGGGSGGGSHHHHHH
Consider B20, for which the equilibrium dissociation constant (Kd) amounted to 11 nM.

B21: anti-DLL3 trispecific protein, DLL3 binder 1G09 (protein, part only; not given: anti-CD3 fragment and anti-albumin domain, part only)
chain, part: EVQLVESGGGLVQPGGSLTLSCVASGSTSSINAMGWYRRAPGKQRELVAGISSDGSKVYADSVKGRFTISRDNAKNSVYLQMNSLRAEDTAVYYCYYFRTVSKSSMRYWGQGTLVTVSSGGGGSGGGSGGGGSGGGSHHHHHH
Take B21: the Kd turned out to be 10 nM.

B22: anti-DLL3 trispecific protein, DLL3 binder 2B010 (protein, part only; not given: CD3 fragment and albumin sdAb, part only)
chain, part: EVQLVESGGGLVQPGGSLTLSCVASGSTSSRNAMGWYRRAPGKQRELVAGISSDGSKLYLDSVKGRFTISRDNAKNSVYLQMNSLRAEDTAVYYCYYFRTVLGSSMRYWGQGTLVTVSSGGGGSGGGSGGGGSGGGSHHHHHH
B22: the dissociation constant (Kd) was 10 nM.

B23: anti-DLL3 trispecific protein, DLL3 binder 1B02 (protein, part only; not given: anti-CD3 fragment and anti-albumin sdAb, part only)
chain, part: EVQLVESGGGLVQPGGSLTLSCVASGSTSSINAMGWYRRAPGKQRELVAGISSDGSKIYADSVKGRFTISRDNAKNSVYLQMNSLRAEDTAVYYCYYFRTVSGSSMRYWGQGTLVTVSSGGGGSGGGSGGGGSGGGSHHHHHH
Molecule B23 displayed a Kd of 11 nM.

B24: anti-DLL3 trispecific protein, DLL3 binder 1F04 (protein, part only; not given: anti-CD3 and anti-albumin domains, part only)
chain, part: EVQLVESGGGLVQPGGSLTLSCVASGGTSSINAMGWYRRAPGKQRELVAGISSDGSKVYSDSVKGRFTISRDNAKNSVYLQMNSLRAEDTAVYYCYYFRTVSGSSARYWGQGTLVTVSSGGGGSGGGSGGGGSGGGSHHHHHH
On to B24, for which the Kd worked out at 10 nM.

B25: anti-DLL3 trispecific protein, DLL3 binder 2B011 (protein, part only; not given: CD3 binder and albumin binder, part only)
chain, part: EVQLVESGGGLVQPGGSLTLSCVASGNTSSINAMGWYRRAPGKQRELVAGISSDGSRVYADSVKGRFTISRDNAKNSVYLQMNSLRAEDTAVYYCYYFRTVSGSSMRSWGQGTLVTVSSGGGGSGGGSGGGGSGGGSHHHHHH
Turning to B25, the Kd turned out to be 11 nM.

B26: anti-DLL3 trispecific protein, DLL3 binder 1H02 (protein, part only; not given: anti-CD3 fragment and anti-albumin domain, part only)
chain, part: EVQLVESGGGLVQPGGSLTLSCVASGSKSSINAMGWYRRAPGKQRELAAGISSDGSKVYAQSVKGRFTISRDNAKNSVYLQMNSLRAEDTAVYYCYYFRTSSGSSMRYWGQGTLVTVSSGGGGSGGGSGGGGSGGGSHHHHHH
In turn, B26 registered a Kd of 10 nM.

B27: anti-DLL3 trispecific protein, DLL3 binder 1G04 (protein, part only; not given: anti-CD3 fragment and anti-albumin sdAb, part only)
chain, part: EVQLVESGGGLVQPGGSLTLSCVASGSTSSTNAMGWYRRAPGKQRELVAGISSDGSKVLADSVKGRFTISRDNAKNSVYLQMNSLRAEDTAVYYCYYFRTVNLSSMRYWGQGTLVTVSSGGGGSGGGSGGGGSGGGSHHHHHH
Molecule B27 had a Kd of 11 nM.

B28: anti-DLL3 trispecific protein, DLL3 binder 2A09 (protein, part only; not given: anti-CD3 and anti-albumin domains, part only)
chain, part: EVQLVESGGGLVQPGGSLTLSCVASGSTSSRNAMGWYRRAPGKQRELVAGISSNGSKVYSDSVKGRFTISRDNAKNSVYLQMNSLRAEDTAVYYCYYFRTVSGSSMSYWGQGTLVTVSSGGGGSGGGSGGGGSGGGSHHHHHH
For the molecule B28, the Kd turned out to be 10 nM.

B29: anti-DLL3 trispecific protein, DLL3 binder 2B01 (protein, part only; not given: CD3 fragment and albumin sdAb, part only)
chain, part: EVQLVESGGGLVQPGGSLTLSCVASGSTSLINAMGWYRRAPGKQRELVAGISSDGSKVYADSVKGRFTISRDNAKNSVYLQMNSLRAEDTAVYYCYYFRHVSGSSMRYWGQGTLVTVSSGGGGSGGGSGGGGSGGGSHHHHHH
In turn, B29 came in with a Kd of 10 nM.

B30: anti-DLL3 trispecific protein, DLL3 binder 1B04 (protein, part only; not given: CD3 fragment and albumin sdAb, part only)
chain, part: EVQLVESGGGLVQPGGSLTLSCVASGTTSSINAMGWYRRAPGKQRELVAGISSDGSLVYADSVKGRFTISRDNAKNSVYLQMNSLRAEDTAVYYCYYFRIVRGSSMRYWGQGTLVTVSSGGGGSGGGSGGGGSGGGSHHHHHH
B30 returned a Kd of 11 nM.
